Data taken from patent US8673594B2, “Methods for stimulating nervous system regeneration and repair by regulating arginase I and polyamine synthesis” (Research Foundation of City University of New York, priority 2000, dated 2014).
“Also recorded” adds a separate entry of the source.

B1: BDNF: Brain-derived neurotrophic factor, Trk-family neurotrophin (protein, UniProt P23560 19-247, looked up)
Neurotrophic factor BDNF …: APMKEANIRGQGGLAYPGVRTHGTLESVNGPKAGSRGLTSLADTFEHVIEELLDEDQKVRPNEENNKDADLYTSRVMLSSQVPLEPPLLFLLEEYKNYLDAANMSMRVRRHSDPARRGELSVCDSISEWVTAADKKTAVDMSGGTVTVLEKVPVSKGQLKQYFYETKCNPMGYTKEGCRGIDKRHWNSQCRTTQSYVRALTMDSKKRIGWRFIRIDTSCVCTLTIKRGR
B2: GDNF: glial cell line-derived neurotrophic factor (protein, UniProt P39905 78-211, looked up)
Glial cell line-derived …: SPDKQMAVLPRRERNRQAAAANPENSRGKGRRGQRGKNRGCVLTAIHLNVTDLGLGYETKEELIFRYCSGSCDAAETTYDKILKNLSRNRRLVSDKVGQACCRPIAFDDDLSFLDDNLVYHILRKHSAKRCGCI

Experiments:
[1] = tested on: cerebellar neurons on MAG-expressing CHO cells; assay: Neurite outgrowth of cerebellar neurons on MAG-expressing or control CHO cells; format: cell-based; settings: for block of inhibition of neurite growth by MAG after priming: neurons primed overnight with neurotrophin 200 ng/ml, then transferred to CHO monolayers
Method: FIG. 2: Improved Axonal Growth on MAG Induced By Elevating cAMP Levels is Transcription-Dependent. (A) Isolated cerebellar neurons at a density of 20,000 neurons per well were plated onto a monolayer of either MAG-expressing Chinese hamster ovary (CHO) cells (striped bars) or control CHO cells (black bars) and cultured overnight before being fixed and immunostained for GAP43 to visualize the neurites. The length of the longest neurite per neuron, from 180-200 neurons, was measured and results are the average length+/−SEM. Where indicated, dibutyryl cAMP (dbcA) at 1 mM in the presence or absence of the inhibitor of transcription, 5,6-dichloro-1-b-D-ribofuranosylbenzimidazole (DRB) at 5 μM, was added to each culture. (B) Cerebellar neurons (1×10^6) were plated onto poly-L-lysine and cultured overnight with brain-derived neurotrophic factor (BDNF) at 200 ng/ml, (termed priming) in the presence or absence of DRB at 5 μM, before being transferred to the CHO cell monolayers.
FIG. 6: An Ornithine Decarboxylase (ODC) Inhibitor Abrogates the Blocking Effect of dbcAMP on the Inhibition of Axonal Outgrowth by MAG and Myelin. […] The longest neurite from at least 180-200 neurons were measured. Results are shown as the mean neurite length+/−SEM.
(§1) After further incubation, neurons were fixed and immunostained for GAP43. The longest neurite from each neuron for 180-200 neurons were measured. Results are shown as the mean neurite length+/−SEM.
FIG. 8: An Inhibitor Of ODC Blocks The Priming Effects Of GDNF On The Inhibition By MAG. […] After further incubation, neurons were fixed and immunostained for GAP43. The longest neurite from each neuron for 180-200 neurons were measured. Results are shown as the mean neurite length±SEM.
Primed neurons were transferred to either MAG-expressing or control CHO cells (A) or a substrate of CNS myelin (B) for further incubation. Neurons were then fixed and immunostained for GAP43. The longest neurite from each neuron was measured for 180-200 neurons. Results are shown as the percentage of control. […]
Neurons were isolated essentially as described in Doherty at al., Nature, 343, pp. 464-66 (1990); Neuron, 5, pp. 209-19 (1990); and Kleitman at al., Culturing Nerve Cells, pp. 337-78, MIT Press, Cambridge, Mass./London, England (G. Banker and K Goslin, Eds.) (1991). Briefly, for animals up to nine days of age, the cerebellum, from two animals were removed and combined in 5 ml of 0.025% trypsin in PBS, triturated, and incubated for a further 10 minutes (min.) at 37° C. Trypsinization was stopped by addition of 5 ml DMEM containing 10% fetal calf serum (FCS) and cells were centrifuged at 800 rpm for 6 min. […] For older DRG neurons, ganglia were removed from two animals and incubated in 5 ml of Sat medium containing 0.025% trypsin and 0.15% collagenase type I (Worthington) for 30 min. at 37° C. The ganglia were triturated with a fire-polished Pasteur pipette. Trypsinization was stopped by adding 5 ml of DMEM containing 10% FCS, centrifuged at 800 rpm for 6 min, and resuspended in 2 ml of SAT (DeBellard et al., 1996). Cells were counted with a Coulter counter.
Chinese hamster ovary (CHO) cells deficient in the dihydrofolate reductase (dhfr) gene (Urlaub and Chasin, Proc. Natl, Acad, Sci. 77, pp. 4216-20 (1980)) were transfected with a MAG-cDNA expression plasmid with the dhfr gene and the L-MAG cDNA, cells with multiple copies of dbfr were selected by growing in increasing concentrations of methotrexate, and the expression of MAG by individual transfected CHO cell lines characterized as described in Mukhopadhyay et al., Neuron, 13, pp. 757-67 (1994), which is incorporated herein by reference. The MAG-expressing transfected CHO cell line) (“CHO-MAG2”) in that publication was deposited on Jun. 27, 1996 with the American Type Culture Collection (ATCC) (Rockville, Md.) according to the provisions of the Budapest Treaty, and was assigned the ATCC accession number designated: ATCC CRL-12145. […]

[2] = tested on: cerebellar neurons on purified CNS myelin; assay: Neurite outgrowth of cerebellar neurons on purified CNS myelin substrate; format: cell-based; settings: for block of myelin-dependent inhibition in the presence of a transcriptional inhibitor: dbcAMP 1 mM or BDNF 200 ng/ml priming, with DRB 5 μM; for block of inhibition by myelin after priming: neurons primed with neurotrophin
Method: Isolated cerebellar neurons at a density of 20,000 neurons per well were plated onto a substrate of purified CNS myelin and cultured overnight before being fixed and immunostained for GAP43. The length of the longest neurite per neuron from 180-200 neurons was measured and results are the average length+/−SEM. Where indicated, dibutyryl cAMP (dbcA) at 1 mM in the presence or absence of the inhibitor of transcription, 5,6-dichloro-1-b-D-ribofuranosylbenzimidazole (DRB) at 5 μM, was added to each culture. (B) Cerebellar neurons (1×10^6) were plated onto poly-L-lysine and cultured overnight with brain-derived neurotrophic factor (BDNF) at 200 ng/ml, (termed priming) in the presence or absence of DRB at 5 μM, before being transferred to the CNS myelin substrate.
The longest neurite from at least 180-200 neurons were measured. Results are shown as the mean neurite length+/−SEM.
as §1
Primed neurons were transferred to either MAG-expressing or control CHO cells (A) or a substrate of CNS myelin (B) for further incubation. Neurons were then fixed and immunostained for GAP43. The longest neurite from each neuron was measured for 180-200 neurons.
Trypsinization was stopped by addition of 5 ml DMEM containing 10% fetal calf serum (FCS) and cells were centrifuged at 800 rpm for 6 min. […] The ganglia were triturated with a fire-polished Pasteur pipette. […] Cells were counted with a Coulter counter.
The neurite outgrowth assay was carried out by adding 5×10^4 neurons to the immobilized myelin substrate or 2×10^4 neurons to the CHO cell monolayers. Briefly, confluent monolayers of control and MAG-expressing CHO cells were established over a 24-hour (h) period in individual chambers of an 8-well tissue culture slide (Lab-Tek). […] Culture medium was SATO containing 2% FCS.
GAP43 antibody was detected by staining with Texas Red and arginase antibody was detected with anti-biotin secondary antibody followed by Texas Red-conjugated streptavidin.
After periods of time as indicated, the co-cultures were fixed for 30 min with 4% paraformaldehyde and permeabilized with ice-cold methanol for 2 min. […] After three more washes, the slides were mounted in Permfluor (Baxter) and viewed with a Zeiss fluorescent microscope. The length of the longest neurite for each GAP43-positive neuron was determined using the Biological Detection System image analysis program (Pittsburgh).

Molecule | block of inhibition of neurite growth by MAG ([1]; agent added directly to the co-culture (dbcAMP 1 mM), overnight) | block of inhibition of neurite growth by myelin ([2]; dbcAMP 1 mM added directly to the culture) | block of myelin-dependent inhibition in the presence of a transcriptional inhibitor [2] | block of inhibition of neurite growth by MAG after priming [1] | block of inhibition by myelin after priming [2]
CCCC(=O)Nc1ncnc2c1ncn2[C@@H]1O[C@@H]2COP(=O)(O)O[C@H]2[C@H]1OC(=O)CCC [dbcAMP, dibutyryl cAMP] | blocks inhibition of neuronal growth by MAG; also recorded: blocks the inhibition of neurite growth by MAG | blocks the inhibition of neurite growth | completely lost |  | 
B1 |  |  | completely lost | blocks inhibition of neuronal growth by MAG; also recorded: blocked the inhibition by MAG | overcomes inhibition of regeneration by MAG and myelin
B2 |  |  |  | overcomes inhibition of regeneration by MAG and myelin | overcomes inhibition of regeneration by MAG and myelin
